Assays:
Conditions in all cases: both partners purified
[1] = biological target: T1, PAPOA structured core (His8-3C-PAPOA residues 1–513-FLAG), wild type (human, UniProt P51003 1-513); assay: pull-down; FLAG pull-down on α-FLAG M2 Protein G Dynabeads; FLAG-tagged PAPOA core 2.5 µM as bait, FIP1 25 µM (10× excess); 20 mM HEPES-NaOH pH 7.5, 150 mM NaCl, 5 mM MgCl2, 0.01% NP-40 substitute, 4°C; Coomassie-stained SDS-PAGE
T1 construct: A 3C site lies between His8 and PAPOA; no cleavage step is described in the purification; also called PAPOA core; PAPOA_(1–513); source: E. coli BL21 STAR (DE3) pRARE, purified (Talon, HiTrap Heparin, Superdex 200); not shown: FLAG, C-terminal, kept
T1 sequence (P51003 1-513): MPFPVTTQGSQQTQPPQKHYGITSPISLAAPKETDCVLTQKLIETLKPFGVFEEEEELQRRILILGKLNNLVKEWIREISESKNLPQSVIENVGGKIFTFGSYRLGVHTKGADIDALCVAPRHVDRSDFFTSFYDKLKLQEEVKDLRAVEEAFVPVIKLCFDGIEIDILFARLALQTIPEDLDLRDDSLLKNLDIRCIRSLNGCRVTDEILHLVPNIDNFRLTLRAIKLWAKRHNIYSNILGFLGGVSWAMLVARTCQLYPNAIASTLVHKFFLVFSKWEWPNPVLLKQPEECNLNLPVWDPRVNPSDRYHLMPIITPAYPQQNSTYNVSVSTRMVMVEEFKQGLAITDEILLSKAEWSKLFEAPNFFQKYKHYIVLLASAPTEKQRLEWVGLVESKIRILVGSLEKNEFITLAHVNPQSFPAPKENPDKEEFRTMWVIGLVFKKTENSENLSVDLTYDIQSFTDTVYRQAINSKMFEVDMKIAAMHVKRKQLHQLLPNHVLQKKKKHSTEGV

[2] = biological target: T1, PAPOA structured core (His8-3C-PAPOA …); assay: pull-down; FLAG pull-down on α-FLAG M2 Protein G Dynabeads; FLAG-tagged PAPOA core 2.5 µM as bait, PAPOAC 100 µM (40× excess); 20 mM HEPES-NaOH pH 7.5, 50 mM NaCl, 5 mM MgCl2, 0.01% NP-40 substitute, 4°C; Coomassie-stained SDS-PAGE
[3] = biological target: T2, CPSF160–WDR33 (CPSF160 coexpressed with TwinStrep3C-WDR33 residues 1–413-FLAG) (human, UniProt Q10570 1-1443; Q9C0J8 1-413); assay: pull-down; FLAG pull-down on α-FLAG M2 Protein G Dynabeads; FLAG-tagged WDR33 (CPSF160–WDR33) 1.5 µM as bait, PAPOAC 15 µM; 20 mM HEPES-NaOH pH 7.5, 150 mM NaCl, 0.01% NP-40 substitute, no MgCl2, 4°C; Coomassie-stained SDS-PAGE
T2 construct: human CPSF160 (mPSF subunit); human WDR33 (mPSF subunit), residues 1-413; A 3C site follows the TwinStrep tag; no cleavage step is described; also called FLAG-tagged WDR33; source: Sf9, baculovirus coexpression, purified (StrepTactin XT, MonoQ, Superdex 200); not shown: FLAG, C-terminal, kept
T2 sequence (Q10570 whole entry, chain 1 of 2, the tested form may be a part): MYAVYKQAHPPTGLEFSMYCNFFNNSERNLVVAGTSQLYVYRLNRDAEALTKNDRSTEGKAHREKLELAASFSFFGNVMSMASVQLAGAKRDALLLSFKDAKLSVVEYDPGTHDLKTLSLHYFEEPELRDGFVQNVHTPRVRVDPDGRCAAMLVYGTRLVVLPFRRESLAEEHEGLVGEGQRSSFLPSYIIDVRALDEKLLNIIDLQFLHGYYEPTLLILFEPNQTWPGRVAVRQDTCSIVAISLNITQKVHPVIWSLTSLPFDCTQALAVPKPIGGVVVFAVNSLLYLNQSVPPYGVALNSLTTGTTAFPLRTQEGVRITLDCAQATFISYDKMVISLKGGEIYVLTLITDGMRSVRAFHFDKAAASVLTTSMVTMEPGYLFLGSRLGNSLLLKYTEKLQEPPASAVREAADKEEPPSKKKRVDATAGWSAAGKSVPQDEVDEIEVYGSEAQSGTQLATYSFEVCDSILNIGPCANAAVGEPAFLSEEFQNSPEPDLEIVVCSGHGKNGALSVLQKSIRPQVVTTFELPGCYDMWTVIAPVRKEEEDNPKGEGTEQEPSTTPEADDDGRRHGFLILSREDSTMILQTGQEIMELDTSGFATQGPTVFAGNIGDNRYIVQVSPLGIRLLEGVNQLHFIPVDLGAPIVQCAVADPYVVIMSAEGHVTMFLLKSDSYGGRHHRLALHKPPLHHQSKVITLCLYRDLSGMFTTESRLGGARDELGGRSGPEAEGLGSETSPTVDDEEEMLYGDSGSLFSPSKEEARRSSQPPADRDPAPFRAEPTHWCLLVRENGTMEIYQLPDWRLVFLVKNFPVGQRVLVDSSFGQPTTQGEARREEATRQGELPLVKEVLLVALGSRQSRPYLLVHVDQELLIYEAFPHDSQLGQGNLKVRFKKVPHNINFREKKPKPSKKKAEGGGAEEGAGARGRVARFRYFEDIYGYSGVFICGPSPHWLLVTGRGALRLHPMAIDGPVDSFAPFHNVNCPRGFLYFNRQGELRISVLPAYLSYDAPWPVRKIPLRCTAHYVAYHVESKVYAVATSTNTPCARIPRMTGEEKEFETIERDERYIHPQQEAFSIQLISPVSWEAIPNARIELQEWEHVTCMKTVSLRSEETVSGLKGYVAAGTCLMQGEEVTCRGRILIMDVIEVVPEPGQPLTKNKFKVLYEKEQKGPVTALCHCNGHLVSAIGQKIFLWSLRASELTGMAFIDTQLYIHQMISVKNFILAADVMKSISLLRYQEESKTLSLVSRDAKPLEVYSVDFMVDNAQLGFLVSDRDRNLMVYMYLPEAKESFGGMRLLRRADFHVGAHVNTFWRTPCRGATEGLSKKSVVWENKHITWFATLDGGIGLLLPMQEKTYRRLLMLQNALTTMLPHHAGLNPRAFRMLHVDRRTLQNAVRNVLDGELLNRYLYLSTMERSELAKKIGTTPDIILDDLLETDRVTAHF
T2 sequence (Q9C0J8 1-413, chain 2 of 2): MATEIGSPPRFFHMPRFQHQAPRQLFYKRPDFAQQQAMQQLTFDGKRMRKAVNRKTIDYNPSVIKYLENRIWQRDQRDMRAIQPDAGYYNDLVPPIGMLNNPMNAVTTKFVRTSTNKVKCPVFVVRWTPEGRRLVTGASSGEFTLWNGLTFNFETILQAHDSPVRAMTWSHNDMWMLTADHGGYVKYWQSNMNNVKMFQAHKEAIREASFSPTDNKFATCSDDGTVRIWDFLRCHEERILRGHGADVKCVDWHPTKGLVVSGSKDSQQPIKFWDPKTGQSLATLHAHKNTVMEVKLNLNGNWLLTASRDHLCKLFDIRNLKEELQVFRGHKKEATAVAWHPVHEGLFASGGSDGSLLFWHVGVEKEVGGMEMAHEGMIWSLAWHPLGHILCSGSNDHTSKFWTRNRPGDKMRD

B1: minimal FIP1 construct (His6-MBP-3C-FIP1 residues 80–113), wild type (peptide, UniProt Q6UN15 80-113, looked up)
chain: ETEDDSDSDSDDDEDDVHVTIGDIKTGAPQYGSY
notes: A 3C site follows MBP; no cleavage step is described in the purification; also called minimal FIP1 peptide; source: E. coli BL21 STAR (DE3) pRARE, purified (Amylose resin, Superdex 200)
- binding result [1]: binds

B2: minimal PAPOAC construct (His6-MBP-3C-PAPOA residues 720–745), wild type (peptide)
chain: DLSDIPALPANPIPVIKNSIKLRLNR
notes: human poly(A) polymerase alpha (PAPOA), C-terminal motif, residues 720-745; A 3C site follows MBP; no cleavage step is described in the purification; also called PAPOA C terminus; PAPOAC peptide; source: E. coli BL21 STAR (DE3) pRARE, purified (Amylose resin, Superdex 200)
- binding result [2]: binds
- binding result [3]: binds

Reference: PMC11182016, “Molecular basis of human poly(A) polymerase recruitment by mPSF” (RNA, 2024)
